Assay results published in patent US10233249B2, “Antibodies and methods for treating estrogen receptor-associated diseases” (BEIJING SHENOGEN PHARMA GROUP LTD., priority 2013, dated 2019).

Assays:
K562 cells = assay: Internalization analysis by surface fluorescence quenching (FACS); type: cell-based, human; conditions: 37° C., peak by 24 hours
Protocol: The % internalization=(Qn-Qo)/(Nn-Qo); Qn=MFI (Mean Fluorescence Intensity) for a sample at a specific time point, after quench; Nn=MFI for a sample taken at a specific time point, no quench; Qo=MFI for sample incubated only on ice at 0 hour, after quench.
As the development of antibody drug conjugate relies on the carrier antibody to be internalized to deliver the chemotherapeutic agent into the tumor cells, the ability of SNGmB1 being internalized by K-562 cells was also assessed.
K562 cells were first cultured in normal IMDM medium for 24 hours. On the second day, the cells are collected by centrifugation and washed once with warm PBS, followed by resuspending into culture medium with IMDM without phenol red (Gibco) supplemented with 2.5% charcoal-stripped FBS (Gibo) without phenol red. After culturing for 48 hours, the cells were collected and centrifuged for 5 minutes at 1000 rpm. The cells were then incubated with AlexaFluro488-labelled anti-ER-α36 antibody SNGmB1 37° C. for different time (1, 2, 4, 6, 24 hours) to allow internalization to occur. The internalization was stopped by putting the cells on ice. Antibody internalization analysis of SNGmB1 by K562 cells was performed by surface fluorescence quenching and measured by MFI as detected by FACS. An anti-anti-AlexaFluro488 antibody was used to quench the AlexaFluro488-labeled SNGmB1 antibody bound on the K562 cell surface.

[1] = biological target: T1, biotinylated GV27 peptide (ER-α36) (Homo sapiens, UniProt P03372); assay: Competition ELISA; type: binding
T1 sequence (P03372 284-310 isoform P03372-4 limits assumed): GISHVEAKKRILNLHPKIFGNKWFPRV
Protocol: The antigen (biotinylated GV27 peptide) was added along with different amount of the competing mouse antibody, the ELISA plates were then allowed to incubate for equilibrium before wash. Streptavidin-HRP (Sigma, S2438, 1:5000) and TMB substrate (Biopanda, China) were added and OD450 was measured on a plate reader. IgG were tested in parallel as control antibody.

[2] = biological target: T2, ER-α36 protein in human tumor tissues (Homo sapiens, UniProt P03372); assay: Immunohistochemistry (IHC) of human tissue samples; conditions: paraffin tissue of breast cancer patients
T2 construct: from tissue; host or cells: paraffin sections of breast cancer patients' tissue
T2 sequence (P03372 1-310 isoform P03372-4): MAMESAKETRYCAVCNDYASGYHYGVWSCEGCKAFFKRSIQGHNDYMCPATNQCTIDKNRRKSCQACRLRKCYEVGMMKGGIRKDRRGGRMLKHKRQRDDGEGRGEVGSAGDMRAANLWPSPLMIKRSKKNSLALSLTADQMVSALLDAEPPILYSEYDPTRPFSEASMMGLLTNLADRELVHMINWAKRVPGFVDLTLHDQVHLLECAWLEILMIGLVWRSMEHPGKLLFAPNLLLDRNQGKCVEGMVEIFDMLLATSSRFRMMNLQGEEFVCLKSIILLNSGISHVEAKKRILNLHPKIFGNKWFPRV
Protocol: Immunohistochemistry (IHC) assay was used to evaluate the ability of utilizing a specific antibody like SNGmB1 to better detect the presence of ER-α36 in human tissue samples. 4 μm thick paraffin tissue blocks of breast cancer patients were de-paraffinized by immersing in the xylene for twenty minutes twice, followed by rehydrating sequentially in 99%, 90%, 85%, 75%, 50% ethanol for 5 minutes each. The tissue sections were then washed three times with PBS. Antigen retrieval was then performed by heating in 95° C. citrate (pH 6.0) buffer for 15 minutes in microwave. Once cooled to room temperature, the sections were then washed with PBS three times, and incubated with 3% hydrogen peroxide for 20 minutes at room temperature, followed by washing with PBS. […] Upon washing with PBS five times, pre-diluted secondary antibody (ZSGB-Bio, Cat# PV-6000) was added and incubated for 20 minutes at room temperature. The sections were then washed with PBS and incubated with DAB solution for 2-5 minutes, followed by rinsing in distilled water for 5-10 minutes. The sections were then counter-stained in hematoxylin (ZSGB-BIO, Cat# ZLI-9609), followed by rinsing sequentially in 50%, 75%, 85%, 90% and 99% A ethanol to dehydrate. The sections were then cleared in xylene and sealed with neutral balsam before evaluated with microscope.

[3] = test system: 4T1-ER-α36 positive cells; assay: 4T1-ER-α36 lung tumor metastasis model; type: in vivo, nude mice
Protocol: FACS-sorted 4T1-ER-α36 positive cells (ATCC) (5*10^4) were injected in the nude mice via tail vein. Average 20 mg/kg body SNGmB1 or control IgG (20 mg/kg body weight) was administered by tail vein injection every 3 or 4 days for 18 days, and tamoxifen (1 mg/kg body weight) was intragastric administrated synchronously. […] Representative immunohistochemical images showing ALDH1 in lung metastatic foci with tamoxifen administrated tumor-bearing nude mice respectively after control IgG and SNGmB1 antibody treatment. Hematoxylin was used for counterstaining. Seen from FIG. 26a and FIG. 26b, it is illustrated that ALDH1 is decreased after SNGmB1 injection. scale bars 50 μm.

B1: SNGmB1: mouse monoclonal anti-ER-α36 antibody (mIgG2b), light chain SEQ ID NO: 16, heavy chain SEQ ID NO: 18 (antibody, listed as Mus musculus)
heavy: QAYLQQSGAELVRPGASVKMSCKASGYTFTSHNMHWIKQTPRQGLEWIGAIHPVNGDTAYNQKFKGKATLTVDKSSSTAYLQLSSLTSEESAVYFCAREGYGSVDYWGQGTTLTVSSAKTTPPSVYPLAPGCGDTTGSSVTLGCLVKGYFPESVTVTWNSGSLSSSVHTFPALLQSGLYTMSSSVTVPSSTWPSQTVTCSVAHPASSTTVDKKLEPSGPISTINPCPPCKECHKCPAPNLEGGPSVFIFPPNIKDVLMISLTPKVTCVVVDVSEDDPDVQISWFVNNVEVHTAQTQTHREDYNSTIRVVSTLPIQHQDWMSGKEFKCKVNNKDLPSPIERTISKIKGLVRAPQVYILPPPAEQLSRKDVSLTCLVVGFNPGDISVEWTSNGHTEENYKDTAPVLDSDGSYFIYSKLNMKTSKWEKTDSFSCNVRHEGLKNYYLKKTISRSPGK
light: ETTVTQSPASLSMTIGEKVTIRCITSTDIDDDMNWYRKKPGQPPKLLISEGNTLRPGVPSRFSSSGYGTDFVFTIENMLSEDVADYYCLQSDNLPLTFGAGTKLELKRADAAPTVSIFPPSSEQLTSGGASVVCFLNNFYPKDINVKWKIDGSERQNGVLNSWTDQDSKDSTYSMSSTLTLTKDEYERHNSYTCEATHKTSTSPIVKSFNRNEC
- percentage of internalized antibody (of the bound antibody) (K562 cells): ~75%
- competition with SNGmB1 antibody for binding to GV27 peptide / ER-α36 [1]: compete against SNGmB1 antibody
- detection of ER-α36 protein expression in human tumor tissues [2]: detected both membrane bound and cytoplasmic expression
- metastasis of lung tumor ([3]; nude mice, 20 mg/kg by tail vein every 3 or 4 days for 18 days, with tamoxifen 1 mg/kg): prevents the metastasis of lung tumor
- ALDH1 in lung metastatic foci (immunohistochemistry) ([3]; tamoxifen administrated tumor-bearing nude mice, versus control IgG): decreased
